Tests used:
[1] = target: T1, human CDH6 (full-length, on cells) (human, UniProt P55285 54-790); test: competition flow cytometry on 786-O/hCDH6 cells, unlabeled antibody varied, competitor Alexa488-labeled NOV0712 at 5 nM [upper panel]
T1 construct: also called hCDH6; full-length hCDH6
T1 sequence: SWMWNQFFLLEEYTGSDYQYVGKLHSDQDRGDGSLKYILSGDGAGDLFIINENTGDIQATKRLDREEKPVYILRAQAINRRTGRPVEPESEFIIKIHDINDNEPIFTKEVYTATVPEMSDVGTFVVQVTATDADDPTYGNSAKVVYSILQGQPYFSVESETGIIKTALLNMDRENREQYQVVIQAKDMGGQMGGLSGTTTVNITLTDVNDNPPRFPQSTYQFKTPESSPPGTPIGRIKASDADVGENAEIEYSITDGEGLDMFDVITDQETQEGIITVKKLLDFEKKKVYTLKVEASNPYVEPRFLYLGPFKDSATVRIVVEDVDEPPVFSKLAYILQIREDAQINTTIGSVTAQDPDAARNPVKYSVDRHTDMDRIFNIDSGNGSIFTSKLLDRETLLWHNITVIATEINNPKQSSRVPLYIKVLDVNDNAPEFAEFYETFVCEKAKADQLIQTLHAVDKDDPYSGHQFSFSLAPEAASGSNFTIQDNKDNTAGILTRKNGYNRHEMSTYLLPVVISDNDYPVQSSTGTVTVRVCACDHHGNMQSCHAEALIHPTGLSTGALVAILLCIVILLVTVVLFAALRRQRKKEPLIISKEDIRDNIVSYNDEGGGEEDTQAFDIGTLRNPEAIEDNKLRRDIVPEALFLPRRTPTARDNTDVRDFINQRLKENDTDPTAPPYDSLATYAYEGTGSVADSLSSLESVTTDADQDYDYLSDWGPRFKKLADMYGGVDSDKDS
Procedure: The cell suspension of the 786-O/hCDH6 stably expressing cell line produced in 6)-2-2-1 was centrifuged, and the supernatant was then removed. Thereafter, the cells were suspended by the addition of labeled NOV0712 or labeled H01L02 (final concentration: 5 nM) and, further, the addition of each of the 4 humanized hG019 antibodies (clone Nos: H01L02, H02L02, H02L03 and H04L02), which had been prepared in Example 5)-5-3, or the anti-CDH6 antibody NOV0712, which had been prepared in Reference Example 1, or human IgG1 (Calbiochem) as a negative control (final concentration: as shown in the abscissa of FIG. 7). The cells were left standing at 4° C. for 1 hour. Thereafter, the cells were washed twice with PBS supplemented with 5% FBS, followed by detection using a flow cytometer (Canto II; BD Biosciences). The data was analyzed using FlowJo (TreeStar, Inc.). The abscissa depicts the final concentration of the added unlabeled antibody, and the ordinate depicts the amount of the antibody bound based on mean fluorescence intensity. When unlabeled NOV0712 is added to cells supplemented with labeled NOV0712, the amount of the labeled antibody bound is decreased by replacement with the unlabeled antibody in an addition concentration-dependent manner because they compete with each other for binding to the same epitope. […]

[2] = target: T2, EC5-deleted human CDH6 (EC5 deletion mutant, on cells) (human, UniProt P55285 54-790); test: flow cytometry, 293α cells transiently expressing EC5-deleted hCDH6 (open) against untransfected cells (shaded), APC anti-human IgG F(ab')2
T2 construct: Full-length human CDH6 lacking EC5; Cloned in p3xFLAG-CMV-9; also called EC5-deleted hCDH6
T2 sequence: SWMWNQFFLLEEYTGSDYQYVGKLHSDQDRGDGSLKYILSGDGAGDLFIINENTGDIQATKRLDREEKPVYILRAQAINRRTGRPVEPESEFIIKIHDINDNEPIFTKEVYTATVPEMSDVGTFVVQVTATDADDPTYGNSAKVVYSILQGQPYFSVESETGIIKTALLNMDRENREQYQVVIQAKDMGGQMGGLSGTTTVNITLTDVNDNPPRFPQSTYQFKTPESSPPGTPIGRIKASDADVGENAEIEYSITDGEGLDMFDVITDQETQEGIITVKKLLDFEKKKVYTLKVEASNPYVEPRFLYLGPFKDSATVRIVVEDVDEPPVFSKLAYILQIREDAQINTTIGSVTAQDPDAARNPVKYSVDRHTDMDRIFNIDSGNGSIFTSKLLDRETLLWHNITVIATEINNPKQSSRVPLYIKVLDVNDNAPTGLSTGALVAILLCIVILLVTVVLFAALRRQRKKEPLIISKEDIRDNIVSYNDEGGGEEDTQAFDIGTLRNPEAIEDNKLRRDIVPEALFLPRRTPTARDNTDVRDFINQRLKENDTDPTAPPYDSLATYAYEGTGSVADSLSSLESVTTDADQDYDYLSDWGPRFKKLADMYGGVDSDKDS
Procedure: Thereafter, the cells were suspended by the addition of each of the 4 humanized hG019 antibodies (clone Nos: H01L02, H02L02, H02L03 and H04L02), which had been prepared in Example 5)-5-3, or the anti-CDH6 antibody NOV0712, which had been prepared in Reference Example 1, or human IgG1 (Calbiochem) as a negative control. The cells were left standing at 4° C. for 1 hour. The cells were washed twice with PBS supplemented with 5% FBS, and then suspended by the addition of APC-anti-human IgG goat F(ab′)2 (Jackson ImmunoResearch Laboratories, Inc.) that had been 500-fold diluted with PBS supplemented with 5% FBS. The cells were left standing at 4° C. for 1 hour. The cells were washed twice with PBS supplemented with 5% FBS, followed by detection using a flow cytometer (Canto II; BD Biosciences). The data was analyzed using FlowJo (TreeStar, Inc.). In the histograms of FIGS. 5-1 to 5-6, the abscissa depicts APC fluorescence intensity indicating the amount of the antibody bound, and the ordinate depicts cell count. […] Fluorescence intensity is enhanced when the antibody binds to full-length hCDH6 or each EC domain deletion mutant on the cell surface. The human IgG1 control binds to none of the transfected cells.

- IC50 (read off the curve) [1]: ~4 nM
- binding result [2]: no binding (tested: not given)
B1: anti-CDH6 antibody NOV0712 (antibody, V domains shown)
VH: QVQLLESGGGLVQPGGSLRLSCAASGFTFSSHGMHWVRQAPGKGLEWVSVISGSGSNTGYADSVKGRFTISRDNSKNTLYLQMNSLRAEDTAVYYCARQWGSYAFDSWGQGTLVTVSS
VL: DIQMTQSPSSLSASVGDRVTITCRASQSISSYLNWYQQKPGKAPKLLIYAVSTLQSGVPSRFSGSGSGTDFTLTISSLQPEDFATYYCQQSGTFPPTTFGQGTKVEIKR

— patent US20220016257A1 (Daiichi Sankyo, published 2022)
